Our source for the Km and kcat values is patent US8278063B2, “Methods for degrading toxic compounds” (Commonwealth Scientific and Industrial Research Organisation, priority 2007, dated 2012).

The target in one data set is MheI (Nocardioides sp., UniProt C8CP46). Description: Enzyme assays and determination of kinetic constants of purified MheI (HPLC). To be noted: 1-40 μM carbendazim, 200 mM sodium phosphate buffer, 22° C.
In the next data set the test system is COC(=O)Nc1nc2ccccc2[nH]1. Description: purified protein, by the assay type. To be noted: other: purified MheI, 1-40 μM carbendazim, 200 mM sodium phosphate buffer, 22° C.

MheI, sequence (C8CP46 whole entry): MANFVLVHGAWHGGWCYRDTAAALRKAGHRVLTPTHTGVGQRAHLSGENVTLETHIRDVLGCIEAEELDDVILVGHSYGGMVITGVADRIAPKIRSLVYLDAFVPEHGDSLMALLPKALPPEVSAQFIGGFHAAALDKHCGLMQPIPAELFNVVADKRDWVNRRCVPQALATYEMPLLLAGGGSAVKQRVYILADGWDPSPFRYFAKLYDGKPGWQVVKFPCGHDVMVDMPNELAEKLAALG
Procedure for COC(=O)Nc1nc2ccccc2[nH]1: (§1) Enzyme assays were performed in 96 well microtiter plates (Agilent catalogue number) at 22° C. The assay mixture typically contained 20 μg bovine serum albumin, 0.022 μg purified MheI and 1-40 μM carbendazim in a final volume of 200 μl of 200 mM sodium phosphate buffer. Enzymatic reaction was stopped by adding 5 μl of formic acid after 10 minutes and the initial velocities were measured using HPLC. All these assays were performed in triplicate.
Procedure for MheI: as §1

As for `COC(=O)Nc1nc2ccccc2[nH]1` [carbendazim], the Km at MheI amounted to 6.1 µM.

In the case of MheI (Nocardioides sp. SG-4G), in the data set on COC(=O)Nc1nc2ccccc2[nH]1, the Km came out at 6.1 µM and the kcat is on record as 120 per second.
